Measurements taken from patent US20140206846A1.

Legend:
[1] = biological target: T1, human VEGF (human), P15692; experiment: Biacore SPR, Fab captured by anti-light chain antibody, VEGF as analyte; conditions: remark: other sources report otherwise
T1 chain: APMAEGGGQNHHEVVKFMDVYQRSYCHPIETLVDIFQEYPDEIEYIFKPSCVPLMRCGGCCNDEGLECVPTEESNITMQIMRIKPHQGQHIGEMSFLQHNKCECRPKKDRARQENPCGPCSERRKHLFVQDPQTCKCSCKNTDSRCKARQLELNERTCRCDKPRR

[2] = biological target: T1, human VEGF (human), P15692; experiment: Biacore; conditions: bispecific antibody; chains VL:VH; remark: other sources report otherwise

Kd [1]: 7.8 nM
koff [2]: 0.000738 s⁻¹
B1: VH6L (bispecific antibody, V domains shown)
VL: NIQKTQSPSSLSASVGDRVTITCRALWHISSYLAWYQQKPGKAPKLLIYAASHLHYGVPSRFSGSGSGTDFTLTISSLQPEDFATYYCQQYSGLPYTFGQGTKVEIK
VH: YYQLVESGGGLVQPGGSLRLSCAADGFLFSGYAMSWIRQAPGKGLEWIGQISGSGGSTVYNYNVLGRFTISRDNSKNTLYLQMNSLRAEDTAVYYCARDTGYFDHWGQGTLVTVSS
